Results taken from article doi:10.1101/2024.03.20.585881 (bioRxiv, 2024).
One block for each binder: values may come before it.

How the values were obtained:
3xFLAG-eGFP-Axin1 = 3xFLAG-eGFP-Axin1 (UniProt O15169 1-862); test: affinity purification with mass spectrometry
3xFLAG-mScarlet-APC = 3xFLAG-mScarlet-APC (human (endogenous in HEK293), UniProt P25054 1-2843); test: affinity purification with mass spectrometry
Sequence of 3xFLAG-mScarlet-APC (P25054 whole entry): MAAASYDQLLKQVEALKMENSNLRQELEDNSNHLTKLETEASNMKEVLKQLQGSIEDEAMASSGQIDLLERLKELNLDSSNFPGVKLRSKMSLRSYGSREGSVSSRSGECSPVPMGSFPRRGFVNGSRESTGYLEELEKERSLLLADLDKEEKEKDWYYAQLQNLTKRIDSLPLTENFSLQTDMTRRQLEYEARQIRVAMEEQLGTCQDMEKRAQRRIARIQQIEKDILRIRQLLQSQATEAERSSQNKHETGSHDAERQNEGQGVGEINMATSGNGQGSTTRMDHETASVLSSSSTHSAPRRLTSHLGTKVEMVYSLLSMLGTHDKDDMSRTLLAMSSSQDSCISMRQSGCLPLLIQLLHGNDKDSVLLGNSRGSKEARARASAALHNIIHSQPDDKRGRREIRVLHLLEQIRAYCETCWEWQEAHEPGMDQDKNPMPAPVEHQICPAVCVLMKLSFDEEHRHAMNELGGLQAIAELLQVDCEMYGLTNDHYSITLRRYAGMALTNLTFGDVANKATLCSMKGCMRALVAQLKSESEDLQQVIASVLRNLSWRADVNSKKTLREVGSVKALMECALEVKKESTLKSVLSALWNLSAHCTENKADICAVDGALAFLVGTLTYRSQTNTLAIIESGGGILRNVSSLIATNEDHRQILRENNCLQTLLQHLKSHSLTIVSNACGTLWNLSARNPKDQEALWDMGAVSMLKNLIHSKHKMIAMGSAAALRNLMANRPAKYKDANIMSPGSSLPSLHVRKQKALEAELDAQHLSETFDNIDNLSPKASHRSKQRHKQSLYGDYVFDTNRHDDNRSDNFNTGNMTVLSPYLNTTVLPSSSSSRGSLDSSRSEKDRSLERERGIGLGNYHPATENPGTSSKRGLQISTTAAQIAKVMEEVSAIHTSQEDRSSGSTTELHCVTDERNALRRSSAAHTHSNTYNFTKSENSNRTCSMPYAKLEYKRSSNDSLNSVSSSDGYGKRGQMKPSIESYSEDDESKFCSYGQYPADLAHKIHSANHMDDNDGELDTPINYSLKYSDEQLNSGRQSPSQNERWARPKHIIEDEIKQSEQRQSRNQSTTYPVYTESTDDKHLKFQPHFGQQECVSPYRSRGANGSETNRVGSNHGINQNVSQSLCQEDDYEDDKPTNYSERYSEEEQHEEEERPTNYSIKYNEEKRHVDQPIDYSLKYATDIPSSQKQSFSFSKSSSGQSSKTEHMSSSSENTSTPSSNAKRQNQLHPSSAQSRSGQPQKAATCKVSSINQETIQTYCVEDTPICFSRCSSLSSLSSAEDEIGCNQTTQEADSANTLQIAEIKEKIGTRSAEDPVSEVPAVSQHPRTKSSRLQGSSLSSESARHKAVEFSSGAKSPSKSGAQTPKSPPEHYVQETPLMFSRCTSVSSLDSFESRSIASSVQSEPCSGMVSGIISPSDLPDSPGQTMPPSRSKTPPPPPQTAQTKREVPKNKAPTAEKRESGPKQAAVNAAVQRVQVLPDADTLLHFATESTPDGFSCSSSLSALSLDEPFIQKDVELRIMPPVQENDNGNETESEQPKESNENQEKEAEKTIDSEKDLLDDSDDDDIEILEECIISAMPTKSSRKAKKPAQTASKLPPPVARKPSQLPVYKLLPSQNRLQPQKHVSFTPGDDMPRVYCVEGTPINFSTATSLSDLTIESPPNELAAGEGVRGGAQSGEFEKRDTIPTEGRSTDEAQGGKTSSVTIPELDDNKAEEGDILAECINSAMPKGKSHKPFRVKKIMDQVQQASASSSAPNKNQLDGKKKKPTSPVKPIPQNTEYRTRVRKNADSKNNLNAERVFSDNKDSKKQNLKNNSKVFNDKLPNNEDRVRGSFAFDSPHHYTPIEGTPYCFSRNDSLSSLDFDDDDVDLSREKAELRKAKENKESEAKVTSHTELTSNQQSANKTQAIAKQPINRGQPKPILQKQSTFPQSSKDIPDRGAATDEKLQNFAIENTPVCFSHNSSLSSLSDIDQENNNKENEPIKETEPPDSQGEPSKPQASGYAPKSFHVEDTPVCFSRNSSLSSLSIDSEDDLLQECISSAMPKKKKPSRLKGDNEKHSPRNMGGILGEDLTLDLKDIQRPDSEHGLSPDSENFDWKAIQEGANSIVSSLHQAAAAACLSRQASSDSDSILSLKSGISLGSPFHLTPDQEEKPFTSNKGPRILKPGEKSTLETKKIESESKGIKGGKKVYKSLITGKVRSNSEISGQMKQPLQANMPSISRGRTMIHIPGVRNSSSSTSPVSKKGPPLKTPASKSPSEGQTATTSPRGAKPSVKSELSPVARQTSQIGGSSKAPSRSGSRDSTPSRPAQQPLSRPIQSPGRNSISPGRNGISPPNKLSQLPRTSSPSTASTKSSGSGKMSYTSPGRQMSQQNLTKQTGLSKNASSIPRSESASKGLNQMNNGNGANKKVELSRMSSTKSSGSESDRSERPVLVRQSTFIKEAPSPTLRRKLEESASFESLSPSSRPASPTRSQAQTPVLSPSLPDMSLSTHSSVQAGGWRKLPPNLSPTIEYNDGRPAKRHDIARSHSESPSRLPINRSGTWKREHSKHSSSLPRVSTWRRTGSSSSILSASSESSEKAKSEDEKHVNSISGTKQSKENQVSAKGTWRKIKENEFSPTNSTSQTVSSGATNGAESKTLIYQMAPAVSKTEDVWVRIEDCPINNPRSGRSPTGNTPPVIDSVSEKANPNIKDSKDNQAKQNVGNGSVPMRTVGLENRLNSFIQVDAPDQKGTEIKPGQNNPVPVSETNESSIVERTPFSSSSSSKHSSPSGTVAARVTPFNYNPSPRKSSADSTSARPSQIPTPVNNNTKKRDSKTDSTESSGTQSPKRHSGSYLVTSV

Sequence of 3xFLAG-eGFP-Axin1 (O15169 whole entry): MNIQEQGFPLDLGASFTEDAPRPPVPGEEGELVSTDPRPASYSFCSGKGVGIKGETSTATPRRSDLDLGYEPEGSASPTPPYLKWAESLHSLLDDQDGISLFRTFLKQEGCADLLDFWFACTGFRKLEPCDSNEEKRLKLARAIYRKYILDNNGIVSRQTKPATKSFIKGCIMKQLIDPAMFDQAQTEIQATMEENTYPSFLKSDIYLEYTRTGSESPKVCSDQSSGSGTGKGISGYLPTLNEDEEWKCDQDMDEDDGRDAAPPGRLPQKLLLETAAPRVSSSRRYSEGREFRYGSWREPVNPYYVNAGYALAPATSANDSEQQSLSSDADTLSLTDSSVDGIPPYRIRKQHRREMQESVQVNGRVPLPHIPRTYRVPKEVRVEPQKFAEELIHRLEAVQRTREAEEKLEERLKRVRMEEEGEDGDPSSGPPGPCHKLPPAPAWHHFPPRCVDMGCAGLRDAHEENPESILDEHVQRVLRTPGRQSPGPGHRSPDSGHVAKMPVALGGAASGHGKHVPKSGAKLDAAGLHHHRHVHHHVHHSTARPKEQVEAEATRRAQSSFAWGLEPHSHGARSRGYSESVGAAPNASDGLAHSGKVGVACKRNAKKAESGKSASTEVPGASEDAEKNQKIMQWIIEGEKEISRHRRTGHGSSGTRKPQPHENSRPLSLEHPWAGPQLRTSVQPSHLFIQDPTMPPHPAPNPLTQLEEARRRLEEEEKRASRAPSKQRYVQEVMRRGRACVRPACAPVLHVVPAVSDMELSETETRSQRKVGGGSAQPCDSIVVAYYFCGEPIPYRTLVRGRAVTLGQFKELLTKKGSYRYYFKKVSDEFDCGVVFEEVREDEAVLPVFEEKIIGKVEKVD

fold decrease in binding after puromycin (3xFLAG-eGFP-Axin1): ~10 fold
B1: α-catenin (natural protein, human (endogenous in HEK293 and HeLa), UniProt P35221 1-906, looked up)
chain: MTAVHAGNINFKWDPKSLEIRTLAVERLLEPLVTQVTTLVNTNSKGPSNKKRGRSKKAHVLAASVEQATENFLEKGDKIAKESQFLKEELVAAVEDVRKQGDLMKAAAGEFADDPCSSVKRGNMVRAARALLSAVTRLLILADMADVYKLLVQLKVVEDGILKLRNAGNEQDLGIQYKALKPEVDKLNIMAAKRQQELKDVGHRDQMAAARGILQKNVPILYTASQACLQHPDVAAYKANRDLIYKQLQQAVTGISNAAQATASDDASQHQGGGGGELAYALNNFDKQIIVDPLSFSEERFRPSLEERLESIISGAALMADSSCTRDDRRERIVAECNAVRQALQDLLSEYMGNAGRKERSDALNSAIDKMTKKTRDLRRQLRKAVMDHVSDSFLETNVPLLVLIEAAKNGNEKEVKEYAQVFREHANKLIEVANLACSISNNEEGVKLVRMSASQLEALCPQVINAALALAAKPQSKLAQENMDLFKEQWEKQVRVLTDAVDDITSIDDFLAVSENHILEDVNKCVIALQEKDVDGLDRTAGAIRGRAARVIHVVTSEMDNYEPGVYTEKVLEATKLLSNTVMPRFTEQVEAAVEALSSDPAQPMDENEFIDASRLVYDGIRDIRKAVLMIRTPEELDDSDFETEDFDVRSRTSVQTEDDQLIAGQSARAIMAQLPQEQKAKIAEQVASFQEEKSKLDAEVSKWDDSGNDIIVLAKQMCMIMMEMTDFTRGKGPLKNTSDVISAAKKIAEAGSRMDKLGRTIADHCPDSACKQDLLAYLQRIALYCHQLNICSKVKAEVQNLGGELVVSGVDSAMSLIQAAKNLMNAVVQTVKASYVASTKYQKSQGMASLNLPAVSWKMKAPEKKPLVKREKQDETQTKIKRASQKKHVNPVQALSEFKAMDSI

fold reduction of the interaction after puromycin (3xFLAG-mScarlet-APC): ~4 fold
fold decrease in binding after puromycin (3xFLAG-eGFP-Axin1): ~10 fold
B2: β-catenin (natural protein, human (endogenous in HEK293 and HeLa), UniProt P35222 1-781, looked up)
chain: MATQADLMELDMAMEPDRKAAVSHWQQQSYLDSGIHSGATTTAPSLSGKGNPEEEDVDTSQVLYEWEQGFSQSFTQEQVADIDGQYAMTRAQRVRAAMFPETLDEGMQIPSTQFDAAHPTNVQRLAEPSQMLKHAVVNLINYQDDAELATRAIPELTKLLNDEDQVVVNKAAVMVHQLSKKEASRHAIMRSPQMVSAIVRTMQNTNDVETARCTAGTLHNLSHHREGLLAIFKSGGIPALVKMLGSPVDSVLFYAITTLHNLLLHQEGAKMAVRLAGGLQKMVALLNKTNVKFLAITTDCLQILAYGNQESKLIILASGGPQALVNIMRTYTYEKLLWTTSRVLKVLSVCSSNKPAIVEAGGMQALGLHLTDPSQRLVQNCLWTLRNLSDAATKQEGMEGLLGTLVQLLGSDDINVVTCAAGILSNLTCNNYKNKMMVCQVGGIEALVRTVLRAGDREDITEPAICALRHLTSRHQEAEMAQNAVRLHYGLPVVVKLLHPPSHWPLIKATVGLIRNLALCPANHAPLREQGAIPRLVQLLVRAHQDTQRRTSMGGTQQQFVEGVRMEEIVEGCTGALHILARDVHNRIVIRGLNTIPLFVQLLYSPIENIQRVAAGVLCELAQDKEAAEAIEAEGATAPLTELLHSRNEGVATYAAAVLFRMSEDKPQDYKKRLSVELTSSLFRTEPMAWNETADLGLDIGAQGEPLGYRQDDPSYRSFHSGGYGQDALGMDPMMEHEMGGHHPGADYPVDGLPDLGHAQDLMDGLPPGDSNQLAWFDTDL
